Test results: US20240350544A1 (Takeda / Millennium, published 2024)
Residue numbers refer to the chain shown, from its start.

What was measured:
[1] = biological target: Bio-cyBCMA-His (biotinylated cynomolgus BCMA with His tag) (cynomolgus); assay: ELISA, scFv periplasmic extract on biotinylated cynomolgus BCMA-His
[2] = biological target: T1, human BCMA protein (Octet; construct not stated) (human, UniProt Q02223 1-54, limits assumed); assay: Octet (BLI), scFv periplasmic extract, human BCMA captured on sensor tips
T1 sequence: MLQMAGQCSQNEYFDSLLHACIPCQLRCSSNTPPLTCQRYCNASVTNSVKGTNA

hBCMA-mIgG2a = biological target: T2, hBCMA-mIgG2a (human; mouse, UniProt Q02223 1-54, limits assumed); assay: Octet (BLI), hBCMA-mIgG2a captured on sensor tips
T2 construct: not shown: mouse IgG2a portion ('mIgG2a')
T2 sequence: T1 sequence

[3] = biological target: T3, human BCMA on BCMA overexpressing CHO cells (human, UniProt Q02223 1-184); assay: flow cytometry on human BCMA overexpressing CHO cells
T3 construct: also called hBCMA CHO; Hu BCMA (FACS)
T3 chain: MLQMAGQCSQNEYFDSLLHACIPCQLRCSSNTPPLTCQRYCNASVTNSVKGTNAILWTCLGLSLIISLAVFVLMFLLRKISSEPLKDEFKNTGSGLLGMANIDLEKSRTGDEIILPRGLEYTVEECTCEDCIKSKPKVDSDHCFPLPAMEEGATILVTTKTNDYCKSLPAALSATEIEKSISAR

hBCMA-HIS antigen = biological target: T4, hBCMA-HIS antigen (human, UniProt Q02223 1-54); assay: Octet (BLI), hBCMA-HIS antigen captured on sensor tips
T4 construct: It may be the same protein as Bio-huBCMA-His without, or with, biotin; also called human BCMA-6His; not shown: His tag
T4 sequence: T1 sequence

Sequence of Bio-cyBCMA-His (biotinylated cynomolgus BCMA with His tag) (cynomolgus) (chain, as listed by the source): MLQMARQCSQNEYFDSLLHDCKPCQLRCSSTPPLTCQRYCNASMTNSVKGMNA

B1: anti-BCMA scFv clone from phage display, first row of Table 3 (VH …..., VL with LCDR3 …) (scFv, V domains shown)
VH: QITLRESGGDVVQPGRSLRLSCAASGFTFSSYAIHWVRQAPGKGLEWVAVTWHDGSNKYYAESVMGRFTISRDNSKNTLYLHMNSLRAEDTGVYYCARAKFGEPQYFQHWGQGTLVTVSS
VL: DIVMTQSPSFLSASVGDRVTITCRASQGISSYLAWYQQKPGKAPKLLIYAASTLQSGVPSRFSGSGSGTEFTLTISSLQPEDFATYYCQQLNSYPWTFGQGTKVDIK
PE Elisa Bio-cyBCMA-His [1]: 0.147

B2: anti-BCMA scFv clone from phage display, first row of Table 3 (VH QITLRESGG..., VL with LCDR3 QQLNSYPWT) (scFv, V domains shown)
VH: B1 VH
VL: B1 VL
notes: Tested as scFv in periplasmic extract; also called Ab 1
koff [2]: 0.000369 s⁻¹

B3: anti-BCMA scFv clone from phage display, second row of Table 3 (VH …..., VL with LCDR3 …) (scFv, V domains shown)
VH: B1 VH
VL: B1 VL with S30N, S31N, K42I, S63G, N92K, W96F, Q100P, D105E
PE Elisa Bio-cyBCMA-His [1]: 0.122

B4: Ab 2, lead anti-BCMA clone of Table 4 (antibody, V domains shown)
VH: B1 VH
VL: B1 VL with S30N, S31N, K42I, S63G, N92K, W96F, Q100P, D105E
Kd (hBCMA-mIgG2a): 0.0117 nM | koff (hBCMA-mIgG2a): 4.44e-06 s⁻¹ | kon (hBCMA-mIgG2a): 379000 M⁻¹ s⁻¹ | EC50 [3]: 0.144 µg/mL | Kd (hBCMA-HIS antigen): 0.0788 nM | koff (hBCMA-HIS antigen): 3.77e-05 s⁻¹ | kon (hBCMA-HIS antigen): 479000 M⁻¹ s⁻¹

B5: anti-BCMA scFv clone from phage display, third row of Table 3 (VH …..., VL with LCDR3 …) (scFv, V domains shown)
VH: B1 VH with Q1E, I2V, T3Q, R5V, L115T
VL: B1 VL with W96F, Q100P
PE Elisa Bio-cyBCMA-His [1]: 0.126

B6: Ab 3, lead anti-BCMA clone of Table 4 (antibody, V domains shown)
VH: B1 VH with Q1E, I2V, T3Q, R5V, L115T
VL: B1 VL with W96F, Q100P
Kd (hBCMA-mIgG2a): < 0.001 nM | koff (hBCMA-mIgG2a): < 1e-07 s⁻¹ | kon (hBCMA-mIgG2a): 308000 M⁻¹ s⁻¹ | EC50 [3]: 0.117 µg/mL | Kd (hBCMA-HIS antigen): 0.0608 nM | koff (hBCMA-HIS antigen): 1.33e-05 s⁻¹ | kon (hBCMA-HIS antigen): 219000 M⁻¹ s⁻¹
